# Test results reported in the supplement of paper PMC10567573.
# B1: JUNB (parent)
# chain: FVKALDDLHKMNHVTPPNVSLGAT
# B2: KCNG1 (parent)
# chain: AVNLSVSTLPSLREEEEQVRAHAP
# Variants of: B1
# Assay: protein stability index of a GFP-peptide fusion (GPS, HEK-293T) (PSI 1-6); higher = more stable
# Settings: c terminus: a fixed tail appended
# 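Also: lentivirally expressed fusions sorted by FACS into six bins by GFP to DsRed ratio, PSI derived from sequencing read proportions per bin multiplied by bin number.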
row,Variant,protein stability index
1,V14M,1.51
2,V14K,1.53
3,V14P,1.46
4,V14H,1.78
5,V14A,2.24
6,V14N,1.89
7,V14S,1.43
8,V14C,2.3
9,V14E,1.93
10,V14Q,2.26
11,V14R,1.84
12,V14D,1.87
13,V14L,1.88
14,V14F,1.8
15,V14W,2.7
16,V14Y,1.19
17,V14T,1.82
18,V14G,2.37
19,V14I,1.82
20,T15M,2.3
21,T15L,2.03
22,T15S,1.92
23,T15N,1.84
24,T15P,2.18
25,T15F,1.69
26,T15D,1.9

row,Variant,protein stability index
1,T15G,2.04
2,T15K,2.09
3,T15A,2.79
4,T15V,1.6
5,T15C,2.06
6,T15Q,2.06
7,T15I,1.59
8,T15R,2.24
9,T15W,1.51
10,T15E,1.45
11,T15H,2.12
12,T15Y,1.67
13,P16H,1.81
14,P16I,1.58
15,P16N,1.14
16,P16Y,1.64
17,P16E,2.55
18,P16W,1.92
19,P16T,2.34
20,P16K,1.79
21,P16L,1.53
22,P16Q,2.11
23,P16D,1.76
24,P16V,1.86
25,P16G,1.9
26,P16M,1.68

row,Variant,protein stability index
1,P16A,1.94
2,P16F,2.55
3,P16R,1.6
4,P16S,1.78
5,P16C,2.48
6,S20A,3.1
7,S20H,1.81
8,S20L,1.56
9,S20P,2.12
10,S20M,1.64
11,S20F,1.39
12,S20K,2.81
13,S20N,1.96
14,S20I,1.11
15,S20C,1.83
16,S20Y,3.04
17,S20Q,1.7
18,S20W,3.23
19,S20D,1.72
20,S20R,2.33
21,S20T,2.09
22,S20G,2.46
23,S20V,1.77
24,S20E,2.16
25,P17C,2.08
26,P17G,1.56

row,Variant,protein stability index
1,P17F,2.56
2,P17I,1.81
3,P17L,1.37
4,P17V,1.71
5,P17A,1.89
6,P17N,1.8
7,P17M,2.35
8,P17K,2.64
9,P17Q,2.21
10,P17E,1.48
11,P17H,1.89
12,P17T,1.62
13,P17R,1.44
14,P17W,3.22
15,P17D,1.97
16,P17Y,3.73
17,P17S,1.83
18,L21F,2.09
19,L21W,1.95
20,L21D,2.51
21,L21P,1.96
22,L21E,2.9
23,L21H,1.74
24,L21G,2.54
25,L21T,1.78
26,L21M,2.16

row,Variant,protein stability index
1,L21I,1.9
2,L21K,2.44
3,L21S,2.25
4,L21V,1.65
5,L21R,2.15
6,L21A,2.17
7,L21N,1.89
8,L21Y,1.52
9,L21C,1.38
10,L21Q,2.36
11,N12Y,3.14
12,N12V,1.67
13,N12T,1.8
14,N18I,1.4
15,N18R,3.67
16,N18G,1.73
17,N18W,2.86
18,N18T,1.47
19,N18C,1.69
20,N18M,2.5
21,N18D,1.73
22,N18K,1.75
23,N18Y,1.73
24,N18F,2.41
25,N18E,1.62
26,N18L,1.93

row,Variant,protein stability index
1,N18S,2.61
2,N18V,1.63
3,N18Q,2.49
4,N18H,1.62
5,N18A,1.32
6,G22I,2.41
7,G22N,2.28
8,G22K,1.46
9,G22V,2.27
10,G22S,2.16
11,G22A,1.85
12,G22H,1.54
13,G22P,2.15
14,G22E,2.12
15,G22L,2.5
16,G22C,2.47
17,G22Y,1.24
18,G22T,1.82
19,G22D,2.43
20,G22R,1.2
21,G22M,1.72
22,G22F,2.48
23,G22Q,2.66
24,V19E,1.67
25,V19M,1.82
26,V19D,1.94

row,Variant,protein stability index
1,V19T,1.56
2,V19Q,1.79
3,V19W,3.57
4,V19H,2.41
5,V19Y,1.47
6,V19C,2.11
7,V19I,1.82
8,V19K,1.39
9,V19R,1.9
10,V19F,1.43
11,V19N,1.98
12,V19A,1.77
13,V19L,1.69
14,V19S,1.63
15,V19G,1.49
16,V19P,1.44
17,A23N,2.02
18,A23H,1.71
19,A23S,2.05
20,A23Y,1.65
21,A23C,2.16
22,A23R,2.39
23,A23T,1.31
24,A23G,1.27
25,A23W,1.72
26,A23Q,1.46

row,Variant,protein stability index
1,A23P,2.46
2,A23L,2.73
3,A23M,1.85
4,A23F,1.41
5,A23D,2.11
6,A23V,2
7,A23K,2.06
8,A23E,2.17
9,A23I,1.77
10,H13S,1.2
11,H13M,2.06
12,H13C,1.67
13,H13D,1.92
14,H13V,1.75
15,H13T,2.75
16,H13K,1.74
17,H13R,2.4
18,H13Q,2.08
19,H13L,2.56
20,H13P,1.75
21,H13G,1.91
22,H13W,2.66
23,H13I,2.22
24,H13E,3.33
25,H13N,1.54
26,H13Y,1.6

row,Variant,protein stability index
1,H13F,2.17
2,H13A,1.92
3,T24W,1.54
4,T24E,2.52
5,T24Q,1.83
6,T24K,1.75
7,T24N,1.6
8,T24H,1.83
9,T24A,1.51
10,T24R,1.33
11,T24V,2.46
12,T24C,1.33
13,T24D,1.86
14,T24S,2
15,T24G,1.56
16,T24F,2.66
17,T24L,1.66
18,T24I,1.92
19,T24Y,1.62
20,T24M,1.81

# Variants of: B2
# Assay: as above
# Settings: c terminus: a fixed tail appended
row,Variant,protein stability index
1,A1R,5.31
2,A1L,4.14
3,A1Q,4.28
4,A1E,4.75
5,A1I,4.48
6,A1Y,2.47
7,A1N,5.02
8,A1C,5
9,A1G,4.96
10,A1P,5.12
11,A1T,5.46
12,A1S,4.82
13,A1W,3.81
14,A1V,4.39
15,A1M,4.61
16,A1F,2.57
17,A1K,5.28
18,A1H,5.12
19,A1D,5.52
20,V2K,5.63
21,V2R,5.04
22,V2T,5.23

row,Variant,protein stability index
1,V2Y,4.93
2,V2I,4.89
3,V2P,5.57
4,V2E,5.39
5,V2H,5.54
6,V2G,5.46
7,V2Q,5.33
8,V2D,5.64
9,V2S,5.41
10,V2N,5.59
11,V2M,4.79
12,V2C,4.98
13,V2W,4.1
14,V2L,5.04
15,V2F,4.83
16,V2A,5.6
17,V6H,5.3
18,V6L,4.69
19,V6K,5.01
20,V6G,4.8
21,V6E,5.58
22,V6I,5.08

row,Variant,protein stability index
1,V6M,4.98
2,V6C,4.75
3,V6F,4.59
4,V6D,5.34
5,V6A,5.14
6,L4M,5.05
7,L4D,5.58
8,L4I,4.8
9,L4P,5.32
10,L4F,4.51
11,L4S,5.05
12,L4V,5.01
13,L4N,5.55
14,L4W,4.45
15,L4G,5.24
16,L4H,5.72
17,L4Y,4.98
18,L4R,5.03
19,L4E,5.73
20,L4A,4.86
21,L4T,4.9
22,L4K,5.24

row,Variant,protein stability index
1,L4Q,5.44
2,L4C,4.88
3,S5V,4.1
4,S5K,4.47
5,S5P,5.36
6,S5W,3.31
7,S5D,5.24
8,S5E,5.33
9,S5H,4.71
10,S5G,4.93
11,S5Y,4.59
12,S5M,4.49
13,S5Q,4.2
14,S5N,4.03
15,S5C,4.65
16,S5F,3.79
17,S5R,3.29
18,S5T,4.59
19,S5I,3.86
20,S5L,3.82
21,S5A,5.48
22,N3V,3.06

row,Variant,protein stability index
1,N3M,4.37
2,N3H,4.72
3,N3D,5.26
4,N3S,4.87
5,N3G,5.03
6,N3Q,4.77
7,N3C,4.45
8,N3I,3.05
9,N3E,5.73
10,N3Y,3.66
11,N3R,4.83
12,N3L,2.41
13,N3T,4.75
14,N3K,4.43
15,N3W,3.66
16,N3F,3.02
17,N3P,5.25
18,N3A,4.75
